The source of these data is publication PMC7988105.

In test [1] the target is NRXN1β (lacking SS4) Fc fusion used as bait in the pull-down. In words: pull-down; soluble recombinant proteins mixed at 0.03 μM each in HBSS, 2 mM CaCl2, 1 mM MgCl2, 3 h, then Protein A-Sepharose 1 h, room temperature; NLGN3-His6 detected with anti-His.
In test [2] the target is NLGN3 ECD HSE/AAA mutant (H279A S280A E281A) with His6 tag (mouse) (UniProt Q8BYM5). In words: ITC; NLGN3 ECD (20 µM) in the cell, PTPδ Ig1–Fn1 (200 µM) injected; 20 mM Tris-HCl pH 8.0, 150 mM NaCl, 25 °C; one-site model. For orientation: Isothermal titration calorimetry measures the heat released or taken up as one component is titrated into another.
Test [3] has as its target NLGN3 ECD MF/IS mutant (M614I F615S) with His6 tag (mouse) (UniProt Q8BYM5). The test is described as above.
For test [4], the target named is mouse NLGN3 ECD (residues 35–684) with C-terminal His6 tag (mouse) (UniProt Q8BYM5). The test is described as above.
In test [5] the target is PTPδA3B– extracellular domain fused to Fc. Briefly: pull-down. Conditions: parent: est. 100; read off a plot.

pKd: −log10 of the molar value.

Sequence of NLGN3 ECD MF/IS mutant (M614I F615S) with His6 tag (mouse) (Q8BYM5 35-684 M614I/F615S): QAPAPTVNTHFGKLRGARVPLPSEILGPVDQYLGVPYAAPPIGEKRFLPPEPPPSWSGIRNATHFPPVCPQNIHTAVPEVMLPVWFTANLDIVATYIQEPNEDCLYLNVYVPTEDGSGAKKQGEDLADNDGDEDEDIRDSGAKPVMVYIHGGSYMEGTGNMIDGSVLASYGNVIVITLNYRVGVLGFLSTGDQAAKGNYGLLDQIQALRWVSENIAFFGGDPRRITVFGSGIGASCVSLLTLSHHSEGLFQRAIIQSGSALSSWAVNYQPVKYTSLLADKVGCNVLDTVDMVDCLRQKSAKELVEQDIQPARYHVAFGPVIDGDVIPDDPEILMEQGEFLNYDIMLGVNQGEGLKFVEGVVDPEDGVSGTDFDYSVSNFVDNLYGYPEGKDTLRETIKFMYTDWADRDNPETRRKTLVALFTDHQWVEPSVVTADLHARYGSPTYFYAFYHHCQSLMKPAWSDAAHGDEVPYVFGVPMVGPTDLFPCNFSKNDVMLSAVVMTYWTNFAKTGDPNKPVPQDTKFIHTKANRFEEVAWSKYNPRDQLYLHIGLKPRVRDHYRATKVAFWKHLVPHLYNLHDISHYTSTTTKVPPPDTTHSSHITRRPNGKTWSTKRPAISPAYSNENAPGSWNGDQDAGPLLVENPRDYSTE
Sequence of NLGN3 ECD HSE/AAA mutant (H279A S280A E281A) with His6 tag (mouse) (Q8BYM5 35-684 H279A/S280A/E281A): as the sequence (Q8BYM5 35-684 M614I/F615S) above, with H245A, S246A, E247A, I580M, S581F counted along it
Sequence of mouse NLGN3 ECD (residues 35–684) with C-terminal His6 tag (mouse) (Q8BYM5 35-684): as the sequence (Q8BYM5 35-684 M614I/F615S) above, with I580M, S581F counted along it

As to “NLGN3 ECD R448C mutant (R/C; equivalent to human R451C) with His6 tag (from UniProt Q8BYM5 35-684) (domain or fragment)”, the pulldown efficiency (% of wild-type) (% of wild-type) in test [1] stood at 40. The term pKd denotes the negative decadic logarithm of the Kd, by convention in mol/L. A low value points to a high Kd. For the substance PTPδA3B– Ig1–Fn1 (domain or fragment), the results for the pKd in test [2], in test [3] and in test [4] were 5.85, 4.57 and 5.36, respectively. “mouse NLGN3 ECD (residues 35–684) with C-terminal His6 tag (from UniProt Q8BYM5) D362A; E372A; N375A”: the percent of parent in test [5] was 16 % WT. Same read-out and setting: the result for “mouse NLGN3 ECD (residues 35–684) with C-terminal His6 tag (from UniProt Q8BYM5) H279A; S280A; E281A” reads 88 % WT; that for “mouse NLGN3 ECD (residues 35–684) with C-terminal His6 tag (from UniProt Q8BYM5) M614A; F615A”, 11 % WT.

As for “mouse NLGN3 ECD (residues 35–684) with C-terminal His6 tag (from UniProt Q8BYM5) M614I; F615S”, the percent of parent in test [5] worked out at 14 % WT.
